Experimental data: publication PMC7954794, “Protein context shapes the specificity of SH3 domain-mediated interactions in vivo” (Nature Communications, 2021)

B1: YKR048C_2 (protein, UniProt P25293 1-417, looked up)
Nucleosome assembly protein: MSDPIRTKPKSSMQIDNAPTPHNTPASVLNPSYLKNGNPVRAQAQEQDDKIGTINEEDILANQPLLLQSIQDRLGSLVGQDSGYVGGLPKNVKEKLLSLKTLQSELFEVEKEFQVEMFELENKFLQKYKPIWEQRSRIISGQEQPKPEQIAKGQEIVESLNETELLVDEEEKAQNDSEEEQVKGIPSFWLTALENLPIVCDTITDRDAEVLEYLQDIGLEYLTDGRPGFKLLFRFDSSANPFFTNDILCKTYFYQKELGYSGDFIYDHAEGCEISWKDNAHNVTVDLEMRKQRNKTTKQVRTIEKITPIESFFNFFDPPKIQNEDQDEELEEDLEERLALDYSIGEQLKDKLIPRAVDWFTGAALEFEFEEDEEEADEDEDEEEDDDHGLEDDDGESAEEQDDFAGRPEQAPECKQS
B2: YKL051W_2 (protein, UniProt P35735 1-353, looked up)
Protein SFK1: MIQFKSPGNWLFIVPWIAFIPWYGMLIAMLICWASQGHPIYWFMHSEQFPVYISDIGATNLRPLFISCAGWQGLGYVITVALEFFQRSGYLPFQLKKKDPSISDSTSYAEKLHSGKYLMPPYYTKDERNLIFAAFVLGSIGELALLFSSIFSTALYHRVHIAMVSVFVVFMFLSTCCLIAEYFLMGRHYASVHPLASPHFNPQSSEKSFNQDYNTVDELPWYKWKGHVWNKFTISATLKVIWLTLAVVWAICFGAINDRSKSACFEWLLAFWFGIIFMILSADFYLGGRYRQSRYFNHVESFSGYYKYDKALGLYHSEDVLPSDDNAGVIATETASSNIYNNSSSNESIQVVV
B3: YGR281W_2 (protein, UniProt P53049 1-1477, looked up)
Oligomycin resistance …: MTITVGDAVSETELENKSQNVVLSPKASASSDISTDVDKDTSSSWDDKSLLPTGEYIVDRNKPQTYLNSDDIEKVTESDIFPQKRLFSFLHSKKIPEVPQTDDERKIYPLFHTNIISNMFFWWVLPILRVGYKRTIQPNDLFKMDPRMSIETLYDDFEKNMIYYFEKTRKKYRKRHPEATEEEVMENAKLPKHTVLRALLFTFKKQYFMSIVFAILANCTSGFNPMITKRLIEFVEEKAIFHSMHVNKGIGYAIGACLMMFVNGLTFNHFFHTSQLTGVQAKSILTKAAMKKMFNASNYARHCFPNGKVTSFVTTDLARIEFALSFQPFLAGFPAILAICIVLLIVNLGPIALVGIGIFFGGFFISLFAFKLILGFRIAANIFTDARVTMMREVLNNIKMIKYYTWEDAYEKNIQDIRTKEISKVRKMQLSRNFLIAMAMSLPSIASLVTFLAMYKVNKGGRQPGNIFASLSLFQVLSLQMFFLPIAIGTGIDMIIGLGRLQSLLEAPEDDPNQMIEMKPSPGFDPKLALKMTHCSFEWEDYELNDAIEEAKGEAKDEGKKNKKKRKDTWGKPSASTNKAKRLDNMLKDRDGPEDLEKTSFRGFKDLNFDIKKGEFIMITGPIGTGKSSLLNAMAGSMRKTDGKVEVNGDLLMCGYPWIQNASVRDNIIFGSPFNKEKYDEVVRVCSLKADLDILPAGDMTEIGERGITLSGGQKARINLARSVYKKKDIYLFDDVLSAVDSRVGKHIMDECLTGMLANKTRILATHQLSLIERASRVIVLGTDGQVDIGTVDELKARNQTLINLLQFSSQNSEKEDEEQEAVVAGELGQLKYESEVKELTELKKKATEMSQTANSGKIVADGHTSSKEERAVNSISLKIYREYIKAAVGKWGFIALPLYAILVVGTTFCSLFSSVWLSYWTENKFKNRPPSFYMGLYSFFVFAAFIFMNGQFTILCAMGIMASKWLNLRAVKRILHTPMSYIDTTPLGRILNRFTKDTDSLDNELTESLRLMTSQFANIVGVCVMCIVYLPWFAIAIPFLLVIFVLIADHYQSSGREIKRLEAVQRSFVYNNLNEVLGGMDTIKAYRSQERFLAKSDFLINKMNEAGYLVVVLQRWVGIFLDMVAIAFALIITLLCVTRAFPISAASVGVLLTYVLQLPGLLNTILRAMTQTENDMNSAERLVTYATELPLEASYRKPEMTPPESWPSMGEIIFENVDFAYRPGLPIVLKNLNLNIKSGEKIGICGRTGAGKSTIMSALYRLNELTAGKILIDNVDISQLGLFDLRRKLAIIPQDPVLFRGTIRKNLDPFNERTDDELWDALVRGGAIAKDDLPEVKLQKPDENGTHGKMHKFHLDQAVEEEGSNFSLGERQLLALTRALVRQSKILILDEATSSVDYETDGKIQTRIVEEFGDCTILCIAHRLKTIVNYDRILVLEKGEVAEFDTPWTLFSQEDSIFRSMCSRSGIVENDFENRS
B4: YCR030C_2 (protein, UniProt P25623 1-870, looked up)
Suppressor of yeast profilin …: MTEQRTKYADSILTTKSPYEATETIRIRLSQVKLLNKDFYLLFKELANLKRNYAQQLRKIIAENEDITKILNAQMIESNVLTPQEMSAFRFNSLGELRNVWDTVIEELKSDLKSSTEYYNTLDQQVVRELKESVENNTSWRESKDLHSKLSKNAASIEHYSKNNENSSHLEEARRQWDQQSPYLFELFETIDYNRLDTLKNCMLRFQTSFSDYLLNTTKECETVMTKFLAFEPQSEIDRFAKDASQYNFQLSSSSKEVVPNNASPASATGARPVSVSNGAANTEREKKSPQKDKRKSAFGNIGHRLASASSSLTHNDLMNNEFSDSTNNSSLKSKKSSHTLRSKVGSIFGRNKTKNKRQQQSSSNSHIQASITETPNNSSTRVSSTATSSIYQKQRRPTYSSSKSNNWTPGEASDTPPLPPHATPKNVDAPVTADTPPAQTFTPSEVPPSTPQQSSPPTAKEPDSSNLPKTVPISISQPPLQPQSKTKPLPVEPASPSISLPTATVDNQPSGQVDSRPLHIRAPALPPSRKQNFIHNRDSQLYDSLPNHGSGATPTSSSLSSIPQERPVSTLSSQITGELRELNPQATGSSTSLVGQSLFQHSSLDTSQFGLNASIAEVLNASFKDGMLQNSQLIGEIALNYLPNSVMNSPLPIGINLRINNGAKFEKVILNQAFIERVAPEEFKVNPSFIDSRTLGAIKYSIKEPIAPIVIHPVWRFESHQASVVLTVKMSPSLPDEISQIVIEDLVVFVNIDGANATSALSKPQGSFSKEKKRITWRFKEPVVLTRNGEGQRLIARFITDGLAHESAKGVITKFTISETDNVALPHSGAGSGITLTCQELDENNPFGGEWLDVNTKRTLTTGNYHGLA
B5: YAR042W_2 (protein, UniProt P35845 1-1188, looked up)
Oxysterol-binding protein …: MEQPDLSSVAISKPLLKLKLLDALRQGSFPNLQDLLKKQFQPLDDPNVQQVLHLMLHYAVQVAPMAVIKEIVHHWVSTTNTTFLNIHLDLNERDSNGNTPLHIAAYQSRGDIVAFLLDQPTINDCVLNNSHLQAIEMCKNLNIAQMMQVKRSTYVAETAQEFRTAFNNRDFGHLESILSSPRNAELLDINGMDPETGDTVLHEFVKKRDVIMCRWLLEHGADPFKRDRKGKLPIELVRKVNENDTATNTKIAIDIELKKLLERATREQSVIDVTNNNLHEAPTYKGYLKKWTNFAQGYKLRWFILSSDGKLSYYIDQADTKNACRGSLNMSSCSLHLDSSEKLKFEIIGGNNGVIRWHLKGNHPIETNRWVWAIQGAIRYAKDREILLHNGPYSPSLALSHGLSSKVSNKENLHATSKRLTKSPHLSKSTLTQNDHDNDDDSTNNNNNKSNNDYDDNNNNNNNDDDDYDDDDESRPLIEPLPLISSRSQSLSEITPGPHSRKSTVSSTRAADIPSDDEGYSEDDSDDDGNSSYTMENGGENDGDEDLNAIYGPYIQKLHMLQRSISIELASLNELLQDKQQHDEYWNTVNTSIETVSEFFDKLNRLTSQREKRMIAQMTKQRDVNNVWIQSVKDLEMELVDKDEKLVALDKERKNLKKMLQKKLNNQPQVETEANEESDDANSMIKGSQESTNTLEEIVKFIEATKESDEDSDADEFFDAEEAASDKKANDSEDLTTNKETPANAKPQEEAPEDESLIVISSPQVEKKNQLLKEGSFVGYEDPVRTKLALDEDNRPKIGLWSVLKSMVGQDLTKLTLPVSFNEPTSLLQRVSEDIEYSHILDQAATFEDSSLRMLYVAAFTASMYASTTNRVSKPFNPLLGETFEYARTDGQYRFFTEQVSHHPPISATWTESPKWDFYGECNVDSSFNGRTFAVQHLGLWYITIRPDHNISVPEETYSWKKPNNTVIGILMGKPQVDNSGDVKVTNHTTGDYCMLHYKAHGWTSAGAYEVRGEVFNKDDKKLWVLGGHWNDSIYGKKVTARGGELTLDRIKTANSATGGPKLDGSKFLIWKANERPSVPFNLTSFALTLNALPPHLIPYLAPTDSRLRPDQRAMENGEYDKAAAEKHRVEVKQRAAKKEREQKGEEYRPKWFVQEEHPVTKSLYWKFNGEYWNKRKNHDFKDCADIF
B6: YBL039C_2 (protein, UniProt P28274 1-579, looked up)
CTP synthase 1: MKYVVVSGGVISGIGKGVLASSTGMLMKTLGLKVTSIKIDPYMNIDAGTMSPLEHGECFVLDDGGETDLDLGNYERYLGVTLTKDHNITTGKIYSHVIAKERKGDYLGKTVQIVPHLTNAIQDWIERVAKIPVDDTGMEPDVCIIELGGTVGDIESAPFVEALRQFQFKVGKENFALIHVSLVPVIHGEQKTKPTQAAIKGLRSLGLVPDMIACRCSETLDKPTIDKIAMFCHVGPEQVVNVHDVNSTYHVPLLLLEQKMIDYLHARLKLDEISLTEEEKQRGLELLSKWKATTGNFDESMETVKIALVGKYTNLKDSYLSVIKALEHSSMKCRRKLDIKWVEATDLEPEAQESNKTKFHEAWNMVSTADGILIPGGFGVRGTEGMVLAARWARENHIPFLGVCLGLQIATIEFTRSVLGRKDSHSAEFYPDIDEKNHVVVFMPEIDKETMGGSMRLGLRPTFFQNETEWSQIKKLYGDVSEVHERHRHRYEINPKMVDELENNGLIFVGKDDTGKRCEILELKNHPYYIATQYHPEYTSKVLDPSKPFLGLVAASAGILQDVIEGKYDLEAGENKFNF
B7: YCR002C_2 (protein, UniProt P25342 1-322, looked up)
Cell division control protein …: MDPLSSVQPASYVGFDTITNQIEHRLLKKGFQFNIMVVGQSGLGKSTLINTLFASHLIDSATGDDISALPVTKTTEMKISTHTLVEDRVRLNINVIDTPGFGDFIDNSKAWEPIVKYIKEQHSQYLRKELTAQRERFITDTRVHAILYFLQPNGKELSRLDVEALKRLTEIANVIPVIGKSDTLTLDERTEFRELIQNEFEKYNFKIYPYDSEELTDEELELNRSVRSIIPFAVVGSENEIEINGETFRGRKTRWSAINVEDINQCDFVYLREFLIRTHLQDLIETTSYIHYEGFRARQLIALKENANSRSSAHMSSNAIQR

System: PPIs identified as affected by the SH3 domain deletions
Test: Liquid DHFR-PCA low-throughput validation of PPIs affected by SH3 deletion (Fig. S1D-E)
Assay type: cell-based, Saccharomyces cerevisiae
Conditions: label = prey, liquid DHFR-PCA, prey _1 = lost, _2 = gained in screen
In short: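 Growth at 30 °C was tracked by OD each 15 min over 72 h in agar-free PCA selection medium, starting at 0.1 OD. Cells were diploids selected after mating, first cultured 48 h with NAT and HPH in synthetic complete MSG medium, pH 6.0.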

Molecule	Ratio (Deletedscore / WTscore) (bait LSB3)	Ratio (Deletedscore / WTscore) (bait BZZ1-2)	other results
B1	1.174		Ratio (Deletedscore / WTscore) (bait BOI2): 1.065
B2	1.525	1.125	Ratio (Deletedscore / WTscore) (bait BOI1): 0.8707
B3	1.455	1.357	Ratio (Deletedscore / WTscore) (bait BOI1): 0.9762
B4		1.115	
B5			Ratio (Deletedscore / WTscore) (bait ABP1): 1.203
B6	1.147	1.633	Ratio (Deletedscore / WTscore) (bait HSE1): 1.248
B7	1.096	1.169	Ratio (Deletedscore / WTscore) (bait HOF1): 0.2463
